For series [1], the target named is ribonucleotide reductase β2 (Escherichia coli) (UniProt P69924). Particulars: cited from earlier work.
Series [2] concerns the molecule itself. In words: crystal structure; α4β4 crystal form; 25 μM α2 and 50 μM met-β2 in 50 mM HEPES, 15 mM MgCl2, 1 mM EDTA, pH 7.6, with 10 mM dATP and 5 mM DTT; hanging drop, ~25°C; crystals soaked with CDP/dATP, UDP/dATP, ADP/dGTP or GDP/TTP; four structures at 2.97-3.40 Å.

Broadly, the Kd is the concentration at which binding is half-saturated.

Chain of ribonucleotide reductase β2 (Escherichia coli) (P69924 2-376): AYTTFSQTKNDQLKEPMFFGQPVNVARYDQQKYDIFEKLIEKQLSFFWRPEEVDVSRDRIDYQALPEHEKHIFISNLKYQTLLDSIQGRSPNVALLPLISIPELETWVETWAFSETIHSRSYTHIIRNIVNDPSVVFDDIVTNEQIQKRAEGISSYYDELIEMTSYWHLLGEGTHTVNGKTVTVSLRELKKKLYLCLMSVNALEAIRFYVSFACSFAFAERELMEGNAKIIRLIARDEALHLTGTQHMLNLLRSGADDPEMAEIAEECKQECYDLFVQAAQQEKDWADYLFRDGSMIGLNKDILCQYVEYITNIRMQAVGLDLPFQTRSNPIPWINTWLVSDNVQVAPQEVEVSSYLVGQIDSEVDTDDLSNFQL

Take “ribonucleotide reductase α2 (from UniProt P00452)”: in series [1], the dissociation constant (Kd) is 400 nM.

B1: Escherichia coli class Ia ribonucleotide reductase catalytic subunit α2 (enzyme, E. coli, UniProt P00452 1-761, looked up)
chain: MNQNLLVTKRDGSTERINLDKIHRVLDWAAEGLHNVSISQVELRSHIQFYDGIKTSDIHETIIKAAADLISRDAPDYQYLAARLAIFHLRKKAYGQFEPPALYDHVVKMVEMGKYDNHLLEDYTEEEFKQMDTFIDHDRDMTFSYAAVKQLEGKYLVQNRVTGEIYESAQFLYILVAACLFSNYPRETRLQYVKRFYDAVSTFKISLPTPIMSGVRTPTRQFSSCVLIECGDSLDSINATSSAIVKYVSQRAGIGINAGRIRALGSPIRGGEAFHTGCIPFYKHFQTAVKSCSQGGVRGGAATLFYPMWHLEVESLLVLKNNRGVEGNRVRHMDYGVQINKLMYTRLLKGEDITLFSPSDVPGLYDAFFADQEEFERLYTKYEKDDSIRKQRVKAVELFSLMMQERASTGRIYIQNVDHCNTHSPFDPAIAPVRQSNLCLEIALPTKPLNDVNDENGEIALCTLSAFNLGAINNLDELEELAILAVRALDALLDYQDYPIPAAKRGAMGRRTLGIGVINFAYYLAKHGKRYSDGSANNLTHKTFEAIQYYLLKASNELAKEQGACPWFNETTYAKGILPIDTYKKDLDTIANEPLHYDWEALRESIKTHGLRNSTLSALMPSETSSQISNATNGIEPPRGYVSIKASKDGILRQVVPDYEHLHDAYELLWEMPGNDGYLQLVGIMQKFIDQSISANTNYDPSRFPSGKVPMQQLLKDLLTAYKFGVKTLYYQNTRDGAEDAQDDLVPSIQDDGCESGACKI
notes: Ribonucleotide reductase class Ia α subunit (NrdA, protein R1), E. coli; residues about 4-737 modelled; 172-kDa homodimer; no tag is named for this preparation; The His6-tagged α2 was used only in the activity assays; also called α subunit; RNR α; source: prepared as described (Salowe et al., 1987; Salowe and Stubbe, 1986), purified
For the molecule B1, the binding result in series [2] is “binds”.
